Measured values: patent publication US6919309B2, “Methods and compositions for inhibiting angiogenesis” (Northwestern University, priority 1997, dated 2005)
Entries after “also recorded” stand apart in the source; their conditions may differ.

Tests used:
[1] = tested on: bovine adrenal capillary endothelial cells; assay: Endothelial cell migration assay (modified Boyden chamber), bovine adrenal capillary endothelial cells; assay type: cell-based
Procedure: The cells were plated on gelatinized Nucleopore membranes (5 μm pores for bovine capillary cells and 8 μm pores for other cells) in an inverted modified Boyden chamber. After two hours, the chamber was reinverted and test substances added to the top wells of each. Specifically, populations were exposed to either culture medium alone (control), 10 ng/ml bFGF, 2 nM PEDF (full length PEDF), or both 10 ng/ml bFGF (basic fibroblast growth factor) and 10 nM PEDF. The cells were then permitted to migrate for 3-4 hours. Following this, the membranes were fixed and stained, and the number of cells that had migrated were counted.
The amount of a given factor necessary to achieve 50% of migration was determined and is reported here as ED50.
In particular, aFGF was employed at a concentration of 50 ng/ml, bFGF was employed at a concentration of 10 ng/ml, IL-8 was employed at a concentration of 40 ng/ml, PDGF was employed at a concentration of 250 pg/ml, and VEGF was employed at a concentration of 100 pg/ml.
In studies aimed at identifying antiangiogenic factors in the eye that might be regulated by the retinoblastoma tumor suppressor gene (Rb), media was fractionated where the media was previously conditioned by a retinoblastoma cell line that had been infected with a retrovirus expressing the wild-type Rb gene, WERI-Rb-27R. (Xu et al., 1991, Cancer Res. 51:4481). […] PEDF was purified from WERI-Rb-27R serum-free conditioned media by sequential steps consisting of dialysis (molecular mass cutoff, 30 kD) against distilled water, 60 to 95% ammonium sulfate precipitation, step elution from lentil lectin Sepharose 4B (Pharmacia) with 0.5 M α-methyl-D-mannopyranoside, and elution from a HiTrap heparin Sepharose column (Pharmacia) with increasing NACl gradient. (Xu, et al., 1991, Cancer Res. 51:4481). […] Migration assays were performed in quadruplicate for each sample with bovine adrenal capillary endothelial cells or human dermal microvascular endothelial cells (Clonetics, San Diego, Calif.) as described. (Polverini, et al., 1991, Methods Enzymol. 198:440). To combine multiple experiments, background migration (Bkgd) was first subtracted toward vehicle (0.1% bovine serum albumin) and them normalized data by setting maximum migration toward inducer alone to 100%. All experiments were repeated two to five times. Statistics were performed on raw data before normalization with the Student's t test. Standard errors were converted to percentages. […] Single-letter abbreviations for the amino acid residues are as follows: A, Ala; D, Asp; E. Glu; F. Phe; G, Gly; I, Ile; L, Leu; M, Met; P, Pro; Q, Gln; R, Arg; S, Ser; T, Thr; V, Val; X, any amino acid; and Y, Tyr.

[2] = tested on: WI-38 fibroblasts, human foreskin fibroblasts, vascular smooth muscle cells, human neutrophils; assay: Migration assay with non-endothelial cells; assay type: cell-based; settings: PEDF 0.01 nM to about 50 nM; inducers IL-8 or PDGF; FIGS. 2A-2D
Procedure: The ability of PEDF to prevent migration of fibroblasts or smooth muscle was tested using cells obtained from human diploid fibroblast cell line WI-38, human foreskin fibroblasts, vascular smooth muscle, and normal human neutrophils.
The assay was performed as indicated in Example 1, except that the dose of PEDF varied from 0.01 nM to about 50 nM and that the migration assay was performed without inverting the chambers. Moreover, the inducer of migration varied with the cell type (IL-8 was used at 1 μg/ml and PDGF was used at 250 pg/ml).

B1: PEDF: full length pigment epithelium derived growth factor, SEQ ID NO:1; purified from WERI-Rb-27R medium or recombinant histidine-tagged (protein, listed as Homo Sapiens)
chain: MQALVLLLCIGALLGHSSCQNPASPPEEGSPDPDSTGALVEEEDPFFKVPVNKLAAAVSNFGYDLYRVRSSMSPTTNVLLSPLSVATALSALSLGADERTESIIHRALYYDLISSPDIHGTYKELLDTVTAPQKNLKSASRIVFEKKLRIKSSFVAPLEKSYGTRPRVLTGNPRLDLQEINNWVQAQMKGKLARSTKEIPDEISILLLGVAHFKGQWVTKFDSRKTSLEDFYLDEERTVRVPMMSDPKAVLRYGLDSDLSCKIAQLPLTGSMSIIFFLPLKVTQNLTLIEESLTSEFIHDIDRELKTVQAVLTVPKLKLSYEGEVTKSLQEMKLQSLFDSPDFSKITGKPIKLTQVEHRAGFEWNEDGAGTTPSPGLQPAHLTFPLDYHLNQPFIFVLRDTDTGALLFIGKILDPRGP
migration, percentage of maximal migration ([1]; 10 ng/ml bFGF plus PEDF, FIG. 1): considerably less migration was observed | migration toward different angiogenic inducers ([1]; 0.1 μg/ml PEDF, aFGF, bFGF, IL-8, PDGF, VEGF, FIG. 3): considerably inhibited; also recorded: inhibited endothelial cell migration toward every angiogenic inducer we tested | potency at inhibiting endothelial cell migration, dose response ([1]; migration towards bFGF, FIGS. 4 and 5): active at sub-nanomolar concentrations | inhibition of migration of non-endothelial cells [2]: did not inhibit the migration
